Substrate in this data set: NC1(C(=O)O)CC1
Description: two-electrode voltage clamp, inward current in Xenopus oocytes. Particulars: pH 5.6, -80 mV, room temperature, Michaelis-Menten fit. In kind it is cell-based, Arabidopsis thaliana. A general note: Two-electrode voltage clamp holds a large cell at a set potential and records current.

B1: LHT2 (Arabidopsis thaliana) (protein)
chain: MGNSEMSASEVAAAKQKNVDDWLPITSSRNAKWWYSAFHNVTAMVGAGVLSLPYAMSNLGWGPGVTIMVMSWIITLYTLWQMVEMHEIVPGKRLDRYHELGQHAFGEKLGLWIVVPQQLIVEVGVDIVYMVTGGASLKKVHQLVCPDCKEIRTTFWIMIFASVHFVISHLPNFNSISIISLAAAVMSLTYSTIAWAASVHKGVHPDVDYSPRASTDVGKVFNFLNALGDVAFAYAGHNVVLEIQATIPSTPEMPSKVPMWRGVIVAYIVVAICYFPVAFLGYYIFGNSVDDNILITLEKPIWLIAMANMFVVIHVIGSYQIFAMPVFDMLETVLVKKMNFNPSFKLRFITRSLYVAFTMIVAICVPFFGGLLGFFGGFAFAPTTYYLPCIMWLVLKKPKRFGLSWTANWFCIIVGVLLTILAPIGGLRTIIINAKTYKFFS
notes: cDNA in pGEM-HE, cRNA injected into Xenopus laevis oocytes
Take B1: the K0.5 came out at 59.1 ± 6.6 mM.

B2: LHT1 (Arabidopsis thaliana) (protein)
chain: MVAQAPHDDHQDDEKLAAARQKEIEDWLPITSSRNAKWWYSAFHNVTAMVGAGVLGLPYAMSQLGWGPGIAVLVLSWVITLYTLWQMVEMHEMVPGKRFDRYHELGQHAFGEKLGLYIVVPQQLIVEIGVCIVYMVTGGKSLKKFHELVCDDCKPIKLTYFIMIFASVHFVLSHLPNFNSISGVSLAAAVMSLSYSTIAWASSASKGVQEDVQYGYKAKTTAGTVFNFFSGLGDVAFAYAGHNVVLEIQATIPSTPEKPSKGPMWRGVIVAYIVVALCYFPVALVGYYIFGNGVEDNILMSLKKPAWLIATANIFVVIHVIGSYQIYAMPVFDMMETLLVKKLNFRPTTTLRFFVRNFYVAATMFVGMTFPFFGGLLAFFGGFAFAPTTYFLPCVIWLAIYKPKKYSLSWWANWVCIVFGLFLMVLSPIGGLRTIVIQAKGYKFYS
notes: as for B1
Turning to B2, the K0.5 came to 60.9 ± 8.2 mM.
